Reference: publication PMC5600724

Target: recombinant Plasmodium vivax apical membrane antigen 1 ectodomain (rPvAMA1) (Plasmodium vivax)
Experiment: ELISA; phage ELISA: wells coated with rPvAMA1 (100 ug/ml in 0.1 M NaHCO3, pH 8.6), blocked with BSA; ~10^9 phage in TBST, 2 h at room temperature; HRP anti-M13 antibody, ABTS, A405; fold = absorbance on target / absorbance on BSA-blocked well

Binder	fold of binding signal (A405 on rPvAMA1 over A405 on BSA) [fold]
TSVSYINNRHNL [PdV3 phage-displayed dodecapeptide]	3.1
WHWSWWNPNQLT [PdV2 phage-displayed dodecapeptide]	3.5
